Substitutions are numbered along the chain they refer to. Numbers in names are those of the source. Where “and” joins values, the source holds several entries; their conditions need not be identical. Equal values may be shown once.
B1: SEQ ID NO: 17: SrUGT85C2 (Stevia rebaudiana) (protein, listed as Stevia rebaudiana)
chain: MDAMATTEKKPHVIFIPFPAQSHIKAMLKLAQLLHHKGLQITFVNTDFIHNQFLESSGPHCLDGAPGFRFETIPDGVSHSPEASIPIRESLLRSIETNFLDRFIDLVTKLPDPPTCIISDGFLSVFTIDAAKKLGIPVMMYWTLAACGFMGFYHIHSLIEKGFAPLKDASYLTNGYLDTVIDWVPGMEGIRLKDFPLDWSTDLNDKVLMFTTEAPQRSHKVSHHIFHTFDELEPSIIKTLSLRYNHIYTIGPLQLLLDQIPEEKKQTGITSLHGYSLVKEEPECFQWLQSKEPNSVVYVNFGSTTVMSLEDMTEFGWGLANSNHYFLWIIRSNLVIGENAVLPPELEEHIKKRGFIASWCSQEKVLKHPSVGGFLTHCGWGSTIESLSAGVPMICWPYSWDQLTNCRYICKEWEVGLEMGTKVKRDEVKRLVQELMGEGGHKMRNKAKDWKEKARIAIAPNGSSSLNIDKMVKEITVLARN
B2: SEQ ID NO: 81: UGT enzyme (Camelina sativa) (protein, listed as Camelina sativa)
chain: MASEKTLQVHPPLHFVLFPFMAQGHMIPMVDIARLLAQRGATVTIVTTRYNAGRFENVLSRAVESGLPINIVHVKFPYEEVGLPKGKENIDSLDSMELMVPFFKAVNMLQDPVVKLMEEMESRPSCIISDLLLPYTSKIAKKFNIPKIVFHGISCFCLLCVHVLRRNLEILTNLKSDKEYFLVPSFPDRVEFTKPQVTVETNASGDWKEFLDEMVEAEDTSYGVIINTFEELEPAYVKDYKDARAGNVWSIGPVSLCNKAGVDKAERGNKATIDQDECLKWLDSKEEGSVLYVCLGSICNLPLVQLKELGLGLEESQRPFIWVIRGWEKYNELSEWMVESGFEERIRERGLLIRGWAPQVLILSHPSVGGFLTHCGWNSTVEGITSGVPLITWPLFGDQFCNQTLVVQVLKAGVSVGVEEVMKWGEEEKIGVLVDKEGVKKAVEDLMGESDDAKERTKRVKELGGLAHKAVEEGGSSHSNITLFLQDIRQVQSV
B3: SEQ ID NO: 82: UGT73F24 (Glycyrrhiza uralensis) (protein, listed as Glycyrrhiza sp.)
chain: MADVAEEQPLKIYFIPYLAAGHMIPLCDIATLFASRGHHVTIITTPSNAQTLRESHHFRVQTIQFPSQEVGLPAGVQNLTAVTNLDDSYKIYHATMLLRKHIEDFVERDPPDCIVADFLFPWVDDVATKLHIPRLVFNGFTLFTICAMESHKAHPLPVDAASGSFVIPDFPHHVTINSTPPKRTKEFVDPLLTEAFKSHGFLINSFVELDGEECVEHYERITGGHKAWHLGPAFLVHRTAQDRGEKSVVSTQECLSWLDSKRDNSVLYICFGTICYFPDKQLYEIASAIEASGHEFIWVVPEKRGNADESEEEKEKWLPKGFEERNNGKKGMIIRGWAPQVAILGHPAVGGFLTHCGWNSTVEAVSAGVPMITWPVHSDQYFNEKLITQVRGIGVEVGAEEWIVTAFRETEKLVGRDRIERAVRRVMDGGDEAVQIRRRARELGEMARQAVQEGGSSHTNLTALINDLKRWRDSKQLN
B4: SEQ ID NO: 83: UGT73C33 (Glycyrrhiza uralensis) (protein, listed as Glycyrrhiza sp.)
chain: MAVFQANQPHFVLFPLMAQGHIIPMIDIARLLAQRGAIVTIFTTPKNASRFTSVLSRAVSSGLQIRLVHLHFPSKEAGLPEGCENLDMVASHDMICNIFQAIRMLQKQAEELFETLTPKPSCIISDFCIPWTTQVAEKHHIPRISFHGFSCFCLHCMLKIHTSKVLEGITSESEYFTVPGIPDQIQVTKQQVPGPMIDEMKEFGEQMRDAEIRSYGVIINTFEELEKAYVNDYKKERNGKVWCIGPVSLCNKDGLDKAQRGNKASISEHHCLEWLDLQQPNSVIYVCLGSLCNLTPPQLMELALGLEATKRPFIWVIREGNKFEELEKWISEEGFEERIKGRGLIIRGWAPQVLILSHPSIGGFLTHCGWNSTLEGVTAGVPMVTWPLFADQFLNEKLVTQVLRIGVSLGVDVPLKWGEEEKVGVQVKKEGIEKAICMVMDEGEESKERRERAKELSEMAKRAVEKDGSSHLNMTMLIQDIMQQSSSKVET
B5: K99F: mutation to UGT enzyme of SEQ ID NO: 15 (protein)
chain: MARRTKNSSGMSLAERFWLTLSRSSLVVGRSCVEFEPETVPLLSTLRGKPITFLGLMPPLPEGRREDGEDATVRWLDAQPAKSVVYVALGSEVPLGVEFVHELALGLELAGTRFLWALRKPTGVSDADLLPAGFEERTRGRGVVATRWVPQMSILAHAAVGAFLTHCGWNSTIEGLMFGHPLIMLPITGDQGPNARLIEAKNAGLQVARNDGDGSFDREGVAAAIRAVAVEEESSKVFQEKAKKLQEIVADMACHERYIDGFIQQLRSYKDDSGYSSSYAAAAGMHVVICPWLAFGHLLPCLDLAQRLASRGHRVSFVSTPRNISRLPPVRPALAPLVAFVALPLPRVEGLPDGAESTNDVPHDRPDMVELHRRAFDGLAAPFSEFLGTACADWVIVDSFHHWAAAAALEHKVPCAMMFLGSAEMIASIADERLEHAETESPAAAGQGRPAAAPTFEVARMKLIR
B6: G96M: mutation to UGT enzyme of SEQ ID NO: 15 (protein)
chain: B5 chain with G96M, F99K
B7: A451R: mutation to UGT enzyme of SEQ ID NO: 15 (protein)
chain: B5 chain with F99K, A451R
B8: S310T: mutation to UGT enzyme of SEQ ID NO: 15 (protein)
chain: B5 chain with F99K, S310T
B9: S125V: mutation to UGT enzyme of SEQ ID NO: 15 (protein)
chain: B5 chain with F99K, S125V
B10: P442D: mutation to UGT enzyme of SEQ ID NO: 15 (protein)
chain: B5 chain with F99K, P442D
B11: L298F: mutation to UGT enzyme of SEQ ID NO: 15 (protein)
chain: B5 chain with F99K, L298F
B12: M425S: mutation to UGT enzyme of SEQ ID NO: 15 (protein)
chain: B5 chain with F99K, M425S
B13: L205Y: mutation to UGT enzyme of SEQ ID NO: 15 (protein)
chain: B5 chain with F99K, L205Y
B14: P442G: mutation to UGT enzyme of SEQ ID NO: 15 (protein)
chain: B5 chain with F99K, P442G
B15: K99E: mutation to UGT enzyme of SEQ ID NO: 15 (protein)
chain: B5 chain with F99E
B16: A81G: mutation to UGT enzyme of SEQ ID NO: 15 (protein)
chain: B5 chain with A81G, F99K
B17: H402W: mutation to UGT enzyme of SEQ ID NO: 15 (protein)
chain: B5 chain with F99K, H402W
B18: M152A_S153A: SEQ ID NO: 15 with mutations M152A, S153A (protein)
chain: B5 chain with F99K, M152A, S153A
B19: A81K: mutation to UGT enzyme of SEQ ID NO: 15 (protein)
chain: B5 chain with A81K, F99K
B20: G189Y: mutation to UGT enzyme of SEQ ID NO: 15 (protein)
chain: B5 chain with F99K, G189Y

test system: mogrol; test: primary glycosylation at C3 and C24 hydroxyls of mogrol by cells expressing UGT enzymes; format: cell-based, E. coli; conditions: mogrol fed; 37° C., 48 hrs; LCMS/MS
Description: Specifically, mogrol was fed to cells expressing various UGT enzymes. Reactions were incubated at 37° C. for 48 hrs. Products were quantified by LCMS/MS with authentic standards of each compound.

Row | Molecule | C3 O-Glucosylation | C24 O-Glucosylation
1 | B1 | No | Yes
2 | B2 | No | Yes
3 | B3 | No | Yes
4 | B4 | No | Yes

test system: steviol glycoside; test: steviol glycoside bioconversion by E. coli expressing individual mutations of UGT SEQ ID NO: 15; format: cell-based; conditions: fold improvement of % conversion vs parent UGT SEQ ID NO: 15; stevia leaf extract and glucose fed; 37° C., 48 hr
Description: Fold improvement is with respect to % steviol glycoside conversion of the parent UGT enzyme of SEQ ID NO: 15. SEQ ID NO: 16 has the following mutations from SEQ ID NO: 15: M152A, S153A. Stevia leaf extract and glucose were fed to the bioconversion strains. Bioconversion took place at 37° C. for 48 hr. Data were quantified by reverse phase LC DAD to quantify conversion of steviol glycosides.
Fold improvement (FI) is with respect to % steviol glycoside conversion.

Row | Molecule | FI % Stevioside −> rebE | FI % rebA −> rebD
5 | B5 | 1.08 | 1.08
6 | B6 | 1.03 and 1.10 | 1.01 and 1.10
7 | B7 | 0.99 | 1.02
8 | B8 | 1.04 | 1.04
9 | B9 | 1.16 | 1.13
10 | B10 | 1.18 | 1.19
11 | B11 | 1.01 | 0.97
12 | B12 | 1.03 | 1.02
13 | B13 | 1.03 | 1.04
14 | B14 | 1.01 | 1.01
15 | B15 | 1.02 | 1.03
16 | B16 | 1.09 | 1.04
17 | B17 | 1.07 | 1.09
18 | B18 | 1.32 | 1.26
19 | B19 | 1.02 and 1.01 | 1.04 and 1.02
20 | B20 | 1.04 | 1.04
